According to patent WO2010028798A1 (dated 2010):

Target: human CCR5 (human, UniProt P51681 1-352)
Assay: cell-based or functional assay

Sequence of human CCR5 (P51681 whole entry): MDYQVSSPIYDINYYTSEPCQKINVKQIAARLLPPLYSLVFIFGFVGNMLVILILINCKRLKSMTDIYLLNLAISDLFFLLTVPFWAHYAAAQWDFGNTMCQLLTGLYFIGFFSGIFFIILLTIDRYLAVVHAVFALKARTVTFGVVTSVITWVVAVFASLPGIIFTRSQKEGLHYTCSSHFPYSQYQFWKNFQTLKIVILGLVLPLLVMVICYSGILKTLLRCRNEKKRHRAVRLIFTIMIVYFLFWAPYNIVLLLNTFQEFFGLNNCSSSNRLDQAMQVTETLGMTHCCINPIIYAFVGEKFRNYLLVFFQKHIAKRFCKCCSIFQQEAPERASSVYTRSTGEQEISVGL

B1: AA-2320 (antibody)
chain 1: EVKLVESGGGLVKPGGSLKLSCAASGFTFSTYAMSWVRQTPEKRLEWVASISTGDNTYYTDSVRGRFTISRDNARNILYLQMSSLRSEDTAMYFCTRGRGDRGDLFGYWGQGTLVTVSS
chain 2: GGGGSGGGGSEVKLVESGGGLVKPGGSLKLSCAASGFTFSTYAMSWVRQTPEKRLEWVASISTGDNTYYTDSVRGRFTISRDNARNILYLQMSSLRSEDTAMYFCTRGRGDRGDLFGYWGQGTLVTVSSGGGGSGGGGSGGGGSDIVMSQSPSSLAVSVGEKVTMSCKSSQSLLYRGNQMNYLAWYQQKPGQSPKLLIYWASTRESGVPDRFTGSGSGTEFTLTISSVKAEDLTVYYCQQYYTYPRTFGGGTKLEIKR
chain 3: DIVMSQSPSSLAVSVGEKVTMSCKSSQSLLYRGNQMNYLAWYQQKPGQSPKLLIYWASTRESGVPDRFTGSGSGTEFTLTISSVKAEDLTVYYCQQYYTYPRTFGGGTKLEIKR
IC50, antiviral assay in PBMC (HIV-1 NLBal, p24 ELISA): 0.088 nM

B2: AN-1000 (antibody, V domains shown)
VH: EVKLVESGGGLVKPGGSLKLSCAASGFTFSTYAMSWVRQTPEKRLEWVASISTGDNTYYTDSVRGRFTISRDNARNILYLQMSSLRSEDTAMYFCTRGRGDRGDLFGYWGQGTLVTVSS
VL: DIVMSQSPSSLAVSVGEKVTMSCKSSQSLLYRGNQMNYLAWYQQKPGQSPKLLIYWASTRESGVPDRFTGSGSGTEFTLTISSVKAEDLTVYYCQQYYTYPRTFGGGTKLEIKR
IC50, antiviral assay in PBMC (HIV-1 NLBal, p24 ELISA): 0.988 nM
